We go through 8 substances from patent publication US20130011386A1.

Experiment [1] concerns the target FcγRIIIa (human) (UniProt P08637). The experiment is described as follows: cell-based or functional assay.
Experiment [2] shares this target. In words: cell-based or functional assay. This is another data set of the same source.

Read-outs that look alike come from different tables or passages of the source.

FcγRIIIa (human), sequence (P08637 17-208 limits assumed): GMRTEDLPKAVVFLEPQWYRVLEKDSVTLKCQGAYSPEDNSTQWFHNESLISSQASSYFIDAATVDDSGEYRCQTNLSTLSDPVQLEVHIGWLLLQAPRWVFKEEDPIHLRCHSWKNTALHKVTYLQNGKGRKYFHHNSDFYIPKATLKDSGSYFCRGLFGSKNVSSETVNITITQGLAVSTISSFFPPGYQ

Consider “2h S267E/I332E (construct 17), anti-CD142 antibody”, for which, in experiment [1], the ADCC EC50 was found to be 5.6 ng/mL and the ADCC fold (EC50 IgG1 wt/EC50 construct) came to 0.08 fold.

For “2h K326A/E333A (construct 11), anti-CD142 antibody”, in experiment [2], the ADCC EC50 turned out to be 21 ng/mL and the ADCC fold (EC50 IgG1 wt/EC50 construct) came to 0.2 fold.

In the case of “2h F243L/R292P/Y300L (construct 7), anti-CD142 antibody”, in experiment [2], the ADCC EC50 was 0.31 ng/mL and the ADCC fold (EC50 IgG1 wt/EC50 construct) is 15 fold.

In the case of “IgG1 wt (construct 1), anti-CD142 antibody with wild type human IgG1 constant region”, in experiment [1], the ADCC EC50 was determined as 0.42 ng/mL and the ADCC fold (EC50 IgG1 wt/EC50 construct) was 1 fold. This substance yielded an ADCC EC50 in experiment [2] of 4.8 ng/mL.

In experiment [2], “2h S239D/H268F/S324T/I332E (construct 9), anti-CD142 antibody” returned an ADCC EC50 of 0.7 ng/mL.

The substance “2h S239D/K326A/E333A (construct 16), anti-CD142 antibody” gave an ADCC EC50 in experiment [1] of 0.14 ng/mL.

For “2h S239D/I332E (construct 5), anti-CD142 antibody”, in experiment [2], the ADCC (shift in apparent EC50 against IgG1 wt), PBMC effectors, MDA-MB-231 targets is 8 fold; the ADCC EC50 came to 0.53 ng/mL; the ADCC fold (EC50 IgG1 wt/EC50 construct) was 9 fold.

With “2h G237A/S239D/I332E (construct 12, X = A), anti-CD142 antibody”, in experiment [2], the ADCC EC50 came to 0.47 ng/mL and the ADCC fold (EC50 IgG1 wt/EC50 construct) was found to be 10 fold.
